Publication doi:10.1101/2024.09.13.612588 (bioRxiv, 2024)

Target: the molecule itself
Experiment: high-speed AFM

B1: Toll/interleukin-1 receptor domain of MyD88 (TIR_(MyD88)), wild type (domain or fragment)
chain: PLGHMPERFDAFICYCPSDIQFVQEMIRQLEQTNYRLKLCVSDRDVLPGTCVWSIASELIEKRCRRMVVVVSDDYLQSKECDFQTKFALSLSPGAHQKRLIPIKYKAMKKEFPSILRFITVCDYTNPCTKSWFWTRLAKALSLP
For B1, the “stoichiometry N” value was 58 subunits.
